IntAct's records for PubMed 29467281

B1: Unconventional myosin-VI (Homo sapiens), Q9UM54-1 (parent)
chain: MEDGKPVWAPHPTDGFQMGNIVDIGPDSLTIEPLNQKGKTFLALINQVFPAEEDSKKDVEDNCSLMYLNEATLLHNIKVRYSKDRIYTYVANILIAVNPYFDIPKIYSSEAIKSYQGKSLGTRPPHVFAIADKAFRDMKVLKMSQSIIVSGESGAGKTENTKFVLRYLTESYGTGQDIDDRIVEANPLLEAFGNAKTVRNNNSSRFGKFVEIHFNEKSSVVGGFVSHYLLEKSRICVQGKEERNYHIFYRLCAGASEDIREKLHLSSPDNFRYLNRGCTRYFANKETDKQILQNRKSPEYLKAGSMKDPLLDDHGDFIRMCTAMKKIGLDDEEKLDLFRVVAGVLHLGNIDFEEAGSTSGGCNLKNKSAQSLEYCAELLGLDQDDLRVSLTTRVMLTTAGGTKGTVIKVPLKVEQANNARDALAKTVYSHLFDHVVNRVNQCFPFETSSYFIGVLDIAGFEYFEHNSFEQFCINYCNEKLQQFFNERILKEEQELYQKEGLGVNEVHYVDNQDCIDLIEAKLVGILDILDEENRLPQPSDQHFTSAVHQKHKDHFRLTIPRKSKLAVHRNIRDDEGFIIRHFAGAVCYETTQFVEKNNDALHMSLESLICESRDKFIRELFESSTNNNKDTKQKAGKLSFISVGNKFKTQLNLLLDKLRSTGASFIRCIKPNLKMTSHHFEGAQILSQLQCSGMVSVLDLMQGGYPSRASFHELYNMYKKYMPDKLARLDPRLFCKALFKALGLNENDYKFGLTKVFFRPGKFAEFDQIMKSDPDHLAELVKRVNHWLTCSRWKKVQWCSLSVIKLKNKIKYRAEACIKMQKTIRMWLCKRRHKPRIDGLVKVGTLKKRLDKFNEVVSVLKDGKPEMNKQIKNLEISIDTLMAKIKSTMMTQEQIQKEYDALVKSSEELLSALQKKKQQEEEAERLRRIQEEMEKERKRREEDEKRRRKEEEERRMKLEMEAKRKQEEEERKKREDDEKRIQAEVEAQLARQKEEESQQQAVLEQERRDRELALRIAQSEAELISDEAQADLALRRNDGTRPKMTPEQMAKEMSEFLSRGPAVLATKAAAGTKKYDLSKWKYAELRDTINTSCDIELLAACREEFHRRLKVYHAWKSKNKKRNTETEQRAPKSVTDYDFAPFLNNSPQQNPAAQIPARQREIEMNRQQRFFRIPFIRPADQYKDPQSKKKGWWYAHFDGPWIARQMELHPDKPPILLVAGKDDMEMCELNLEETGLTRKRGAEILPRQFEEIWERCGGIQYLQNAIESRQARPTYATAMLQSLLK
partner: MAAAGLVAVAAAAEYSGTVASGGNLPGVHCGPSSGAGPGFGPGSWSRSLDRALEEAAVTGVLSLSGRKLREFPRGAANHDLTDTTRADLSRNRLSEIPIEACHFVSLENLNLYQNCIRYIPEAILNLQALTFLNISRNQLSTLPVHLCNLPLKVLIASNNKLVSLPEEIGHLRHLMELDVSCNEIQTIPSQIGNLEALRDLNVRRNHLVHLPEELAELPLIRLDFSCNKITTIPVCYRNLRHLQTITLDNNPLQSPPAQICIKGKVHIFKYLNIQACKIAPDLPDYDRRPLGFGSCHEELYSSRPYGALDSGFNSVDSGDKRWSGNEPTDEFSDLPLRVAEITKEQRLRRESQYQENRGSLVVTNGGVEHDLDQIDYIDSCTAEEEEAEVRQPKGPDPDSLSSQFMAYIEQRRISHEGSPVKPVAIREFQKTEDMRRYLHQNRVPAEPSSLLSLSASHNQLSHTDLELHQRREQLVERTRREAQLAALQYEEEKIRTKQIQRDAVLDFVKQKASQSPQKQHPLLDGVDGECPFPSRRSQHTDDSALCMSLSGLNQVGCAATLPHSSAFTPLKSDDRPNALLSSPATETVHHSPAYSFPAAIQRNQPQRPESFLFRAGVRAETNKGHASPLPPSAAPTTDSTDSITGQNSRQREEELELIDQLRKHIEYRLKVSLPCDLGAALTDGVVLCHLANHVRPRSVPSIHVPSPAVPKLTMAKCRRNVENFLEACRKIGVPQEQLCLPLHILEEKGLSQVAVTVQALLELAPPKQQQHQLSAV

Variants of: B1
Settings: with lrch3_human LRCH3, Q96II8

Row | effect of a mutation on the interaction | Variant
1 | disrupting interaction strength | W1192L
2 | disrupting interaction strength | R1107A;R1108A;L1109A
